In one data set the target is Homer1b (rat). The experiment in a line: AUC.
A further data set has as its target Shank1CΔPEST. The experiment in a line: co-sedimentation.
The target of data set [1] is Homer1b I332R/I337E (rat). The experiment in a line: AUC.
A further data set addresses Homer1bΔ329 (rat). Nature of the data set: AUC.
The data set “crystal structure” concerns the molecule itself. The experiment in a line: crystal structure.

The stoichiometry N is a count of units in the complex or per binding partner. In turn, Homer1b (natural protein) yielded a stoichiometry N with Homer1b (rat) of 4.2 mer. Besides, in the data set with Shank1CΔPEST, the percent precipitated worked out at 50% and the stoichiometry N (Homer:Shank molar ratio) was 1.
Regarding Homer1b I332R/I337E (natural protein), in data set [1], the stoichiometry N came to 2 mer.
The molecule Homer1bΔ329 (domain or fragment) returned a stoichiometry N in the data set with Homer1bΔ329 (rat) of 2.1 mer.

B1: Homer3CC2 (287 – carboxy-terminus of Homer3a) (domain or fragment, human, UniProt Q9NSC5 287-361, looked up)
chain: AAEREETQQKVQDLETRNAELEHQLRAMERSLEEARAERERARAEVGRAAQLLDVSLFELSELREGLARLAEAAP
As to B1, in the data set “crystal structure”, the binding result is given as “binds”.
